Data on 10 sequences can be found in the supplement of paper PMC5998384.

The test system of series [1] is HeLa Kyoto. Briefly: solubility in G1/S (NP-40 vs SDS abundance) (log2 ratio); higher = more soluble. The settings on record: cell cycle stage: G1/S.
In series [2] the test system is HeLa Kyoto. Briefly: solubility change mitosis vs G1/S (difference of NP-40 vs SDS log2 ratios) (log2 ratio difference); higher = more soluble in mitosis.
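For solubility change mitosis vs G1/S (difference of NP-40 vs SDS log2 ratios) in this document: synchronized HeLa Kyoto cells (double thymidine block for G1/S, nocodazole release for mitosis), protein amounts in NP-40 versus SDS lysates quantified by mass spectrometry, three biological replicates.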
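For solubility in G1/S (NP-40 vs SDS abundance) in this document: HeLa Kyoto cells arrested at G1/S by double thymidine block, proteins quantified by TMT10plex mass spectrometry in mild NP-40 versus SDS extracts, three biological replicates.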

For “MDSTKEKCDSYKDDLLLRMGLNDNKAGMEGLDKEKINKIIMEATKGSRFYGNELKKEKQVNQRIENMMQQKAQITSQQLRKAQLQVDRFAMELEQSRNLSNTIVHIDMDAFYAAVEMRDNPELKDKPIAVGSMSMLSTSNYHARRFGVRAAMPGFIAKRLCPQLIIVPPNFDKYRAVSKEVKEILADYDPNFMAMSLDEAYLNITKHLEERQNWPEDKRRYFIKMGSSVENDNPGKEVNKLSEHERSISPLLFEESPSDVQPPGDPFQVNFEEQNNPQILQNSVVFGTSAQEVVKEIRFRIEQKTTLTASAGIAPNTMLAKVCSDKNKPNGQYQILPNRQAVMDFIKDLPIRKVSGIGKVTEKMLKALGIITCTELYQQRALLSLLFSETSWHYFLHISLGLGSTHLTRDGERKSMSVERTFSEINKAEEQYSLCQELCSELAQDLQKERLKGRTVTIKLKNVNFEVKTRASTVSSVVSTAEEIFAIAKELLKTEIDADFPHPLRLRLMGVRISSFPNEEDRKHQQRSIIGFLQAGNQALSATECTLEKTDKDKFVKPLEMSHKKSFFDKKRSERKWSHQDTFKCEAVNKQSFQTSQPFQVLKKKMNENLEISENSDDCQILTCPVCFRAQGCISLEALNKHVDECLDGPSISENFKMFSCSHVSATKVNKKENVPASSLCEKQDYEAHPKIKEISSVDCIALVDTIDNSSKAESIDALSNKHSKEECSSLPSKSFNIEHCHQNSSSTVSLENEDVGSFRQEYRQPYLCEVKTGQALVCPVCNVEQKTSDLTLFNVHVDVCLNKSFIQELRKDKFNPVNQPKESSRSTGSSSGVQKAVTRTKRPGLMTKYSTSKKIKPNNPKHTLDIFFK [POLK]”, the “solubility in G1/S (log2)” value with HeLa Kyoto [1] was -0.534. Moreover, the “solubility change mitosis (log2)” value in the series on HeLa Kyoto [2] stood at 0.335.

With “MDTAEEDICRVCRSEGTPEKPLYHPCVCTGSIKFIHQECLVQWLKHSRKEYCELCKHRFAFTPIYSPDMPSRLPIQDIFAGLVTSIGTAIRYWFHYTLVAFAWLGVVPLTACRIYKCLFTGSVSSLLTLPLDMLSTENLLADCLQGCFVVTCTLCAFISLVWLREQIVHGGAPIWLEHAAPPFNAAGHHQNEAPAGGNGAENVAADQPANPPAENAVVGENPDAQDDQAEEEEEDNEEEDDAGVEDAADANNGAQDDMNWNALEWDRAAEELTWERMLGLDGSLVFLEHVFWVVSLNTLFILVFAFCPYHIGHFSLVGLGFEEHVQASHFEGLITTIVGYILLAITLIICHGLATLVKFHRSRRLLGVCYIVVKVSLLVVVEIGVFPLICGWWLDICSLEMFDATLKDRELSFQSAPGTTMFLHWLVGMVYVFYFASFILLLREVLRPGVLWFLRNLNDPDFNPVQEMIHLPIYRHLRRFILSVIVFGSIVLLMLWLPIRIIKSVLPNFLPYNVMLYSDAPVSELSLELLLLQVVLPALLEQGHTRQWLKGLVRAWTVTAGYLLDLHSYLLGDQEENENSANQQVNNNQHARNNNAIPVVGEGLHAAHQAILQQGGPVGFQPYRRPLNFPLRIFLLIVFMCITLLIASLICLTLPVFAGRWLMSFWTGTAKIHELYTAACGLYVCWLTIRAVTVMVAWMPQGRRVIFQKVKEWSLMIMKTLIVAVLLAGVVPLLLGLLFELVIVAPLRVPLDQTPLFYPWQDWALGVLHAKIIAAITLMGPQWWLKTVIEQVYANGIRNIDLHYIVRKLAAPVISVLLLSLCVPYVIASGVVPLLGVTAEMQNLVHRRIYPFLLMVVVLMAILSFQVRQFKRLYEHIKNDKYLVGQRLVNYERKSGKQGSSPPPPQSSQE [MARCH6]”, the “solubility in G1/S (log2)” value in the series on HeLa Kyoto [1] was -0.397. Also, the “solubility change mitosis (log2)” value in the series on HeLa Kyoto [2] was 0.155.

With “MDWKEVLRRRLATPNTCPNKKKSEQELKDEEMDLFTKYYSEWKGGRKNTNEFYKTIPRFYYRLPAEDEVLLQKLREESRAVFLQRKSRELLDNEELQNLWFLLDKHQTPPMIGEEAMINYENFLKVGEKAGAKCKQFFTAKVFAKLLHTDSYGRISIMQFFNYVMRKVWLHQTRIGLSLYDVAGQGYLRESDLENYILELIPTLPQLDGLEKSFYSFYVCTAVRKFFFFLDPLRTGKIKIQDILACSFLDDLLELRDEELSKESQETNWFSAPSALRVYGQYLNLDKDHNGMLSKEELSRYGTATMTNVFLDRVFQECLTYDGEMDYKTYLDFVLALENRKEPAALQYIFKLLDIENKGYLNVFSLNYFFRAIQELMKIHGQDPVSFQDVKDEIFDMVKPKDPLKISLQDLINSNQGDTVTTILIDLNGFWTYENREALVANDSENSADLDDT [C14ORF10]”, the “solubility in G1/S (log2)” value in the series with HeLa Kyoto [1] is -0.0201. Besides, in the series on HeLa Kyoto [2], the “solubility change mitosis (log2)” value was -0.0757.

Regarding “MEAPPVTMMPVTGGTINMMEYLLQGSVLDHSLESLIHRLRGLCDNMEPETFLDHEMVFLLKGQQASPFVLRARRSMDRAGAPWHLRYLGQPEMGDKNRHALVRNCVDIATSENLTDFLMEMGFRMDHEFVAKGHLFRKGIMKIMVYKIFRILVPGNTDSTEALSLSYLVELSVVAPAGQDMVSDDMKNFAEQLKPLVHLEKIDPKRLM [MED18]”, the “solubility in G1/S (log2)” value in the series with HeLa Kyoto [1] amounted to 0.212. Further, in the series on HeLa Kyoto [2], the “solubility change mitosis (log2)” value was -0.161.

“MEDGVLKEGFLVKRGHIVHNWKARWFILRQNTLVYYKLEGGRRVTPPKGRILLDGCTITCPCLEYENRPLLIKLKTQTSTEYFLEACSREERDAWAFEITGAIHAGQPGKVQQLHSLRNSFKLPPHISLHRIVDKMHDSNTGIRSSPNMEQGSTYKKTFLGSSLVDWLISNSFTASRLEAVTLASMLMEENFLRPVGVRSMGAIRSGDLAEQFLDDSTALYTFAESYKKKISPKEEISLSTVELSGTVVKQGYLAKQGHKRKNWKVRRFVLRKDPAFLHYYDPSKEENRPVGGFSLRGSLVSALEDNGVPTGVKGNVQGNLFKVITKDDTHYYIQASSKAERAEWIEAIKKLT [PLEK2]”: the “solubility in G1/S (log2)” value in the series with HeLa Kyoto [1] was -0.00783. Further, the “solubility change mitosis (log2)” value in the series on HeLa Kyoto [2] was -0.0462.

“MEDLEEDVRFIVDETLDFGGLSPSDSREEEDITVLVTPEKPLRRGLSHRSDPNAVAPAPQGVRLSLGPLSPEKLEEILDEANRLAAQLEQCALQDRESAGEGLGPRRVKPSPRRETFVLKDSPVRDLLPTVNSLTRSTPSPSSLTPRLRSNDRKGSVRALRATSGKRPSNMKRESPTCNLFPASKSPASSPLTRSTPPVRGRAGPSGRAAASEETRAAKLRVSGSGEFVGLTLKFLHPSPPGPPTPIRSVLAPQPSTSNSQRLPRPQGAAAKSSSQLPIPSAIPRPASRMPLTSRSVPPGRGALPPDSLSTRKGLPRPSTAGHRVRESGHKVPVSQRLNLPVMGATRSNLQPPRKVAVPGPTR [PSRC1]”: in the series on HeLa Kyoto [1], the “solubility in G1/S (log2)” value was -0.152. Moreover, in the series with HeLa Kyoto [2], the “solubility change mitosis (log2)” value was determined as 0.803.

“MEEEQDLPEQPVKKAKMQESGEQTISQVSNPDVSDQKPETSSLASNLPMSEEIMTCTDYIPRSSNDYTSQMYSAKPYAHILSVPVSETAYPGQTQYQTLQQTQPYAVYPQATQTYGLPPFGALWPGMKPESGLIQTPSPSQHSVLTCTTGLTTSQPSPAHYSYPIQASSTNASLISTSSTIANIPAAAVASISNQDYPTYTILGQNQYQACYPSSSFGVTGQTNSDAESTTLAATTYQSEKPSVMAPAPAAQRLSSGDPSTSPSLSQTTPSKDTDDQSRKNMTSKNRGKRKADATSSQDSELERVFLWDLDETIIIFHSLLTGSYAQKYGKDPTVVIGSGLTMEEMIFEVADTHLFFNDLEECDQVHVEDVASDDNGQDLSNYSFSTDGFSGSGGSGSHGSSVGVQGGVDWMRKLAFRYRKVREIYDKHKSNVGGLLSPQRKEALQRLRAEIEVLTDSWLGTALKSLLLIQSRKNCVNVLITTTQLVPALAKVLLYGLGEIFPIENIYSATKIGKESCFERIVSRFGKKVTYVVIGDGRDEEIAAKQHNMPFWRITNHGDLVSLHQALELDFL [EYA3]”: the “solubility in G1/S (log2)” value in the series with HeLa Kyoto [1] was -0.0392. For the same sequence, the “solubility change mitosis (log2)” value with HeLa Kyoto [2] is -0.0147.

Regarding “MEEFDLVKTLHKTSSSVGSDENSLHSLGLNLNTDRSSPHLSTNGVSSFSGKTRPSVIQGTVEVLTSLMQELQNSGKTDSELWKNCETRWLQLFNLVEKQCQEQIVAQQEQFHNQIQHIQEEIKNLVKLQTSSASLASCEGNSSNKQVSSESQMGFFSLSSERNESVIHYPESTEPEIQQEMSTSQPDCNVDSCSVSSGYGTFCISELNLYKSKDPKEFMEHIDVPKGQYVAPAVPAESLVDGVKNENFYIQTPEECHVSLKEDVSISPGEFEHNFLGENKVSEVYSGKTNSNAITSWAQKLKQNQPKRAHVEDGGSRSKQGNEQSKKTPIEKSDFAAATHPRAFYLSKPDETPNAWMSDSGTGLTYWKLEEKDMHHSLPETLEKTFISLSSTDVSPNQSNTSNEMKLPSLKDIYYKKQRENKQLPERNLTSASNPNHPPEVLTLDPTLHMKPKQQISGIQPHGLPNALDDRISFSPDSVLEPSMSSPSDIDSFSQASNVTSQLPGFPKYPSHTKASPVDSWKNQTFQNESRTSSTFPSVYTITSNDISVNTVDEENTVMVASASVSQSQLPGTANSVPECISLTSLEDPVILSKIRQNLKEKHARHIADLRAYYESEINSLKQKLEAKEISGVEDWKITNQILVDRCGQLDSALHEATSRVRTLENKNNLLEIEVNDLRERFSAASSASKILQERIEEMRTSSKEKDNTIIRLKSRLQDLEEAFENAYKLSDDKEAQLKQENKMFQDLLGEYESLGKEHRRVKDALNTTENKLLDAYTQISDLKRMISKLEAQVKQVEHENMLSLRHNSRIHVRPSRANTLATSDVSRRKWLIPGAEYSIFTGQPLDTQDSNVDNQLEETCSLGHRSPLEKDSSPGSSSTSLLIKKQRETSDTPIMRALKELDEGKIFKNWGTQTEKEDTSNINPRQTETSVNASRSPEKCAQQRQKRLNSASQRSSSLPPSNRKSSTPTKREIMLTPVTVAYSPKRSPKENLSPGFSHLLSKNESSPIRFDILLDDLDTVPVSTLQRTNPRKQLQFLPLDDSEEKTYSEKATDNHVNHSSCPEPVPNGVKKVSVRTAWEKNKSVSYEQCKPVSVTPQGNDFEYTAKIRTLAETERFFDELTKEKDQIEAALSRMPSPGGRITLQTRLNQEALEDRLERINRELGSVRMTLKKFHVLRTSANL [MPHOSPH9]”, the “solubility in G1/S (log2)” value in the series with HeLa Kyoto [1] was -0.0212. Further, the “solubility change mitosis (log2)” value in the series on HeLa Kyoto [2] was found to be 0.149.

Turning to “MEEKPSGPIPDMLATAEPSSSETDKEVLSPAVPAAAPSSSMSEEPGPEQAATPPVWERGGAGGMQQGSSPAPDSCQPGPGPSPGLTSIVSGTSEDLRPPRRRPPPGKQIPCSSPGCCLSFPSVRDLAQHLRTHCPPTQSLEGKLFRCSALSCTETFPSMQELVAHSKLHYKPNRYFKCENCLLRFRTHRSLFKHLHVCAEHAQSPAPPPPPALDREPPAPERPPEVDPASAPGLPFPLLEPFTTPAPAPTGPFLPYLNPAPFGLSPPRLRPFLAAAPGPPASSAAVWKKSQGAGSSPRRPQGGSDAPSGACR [ZNF414]”, in the series on HeLa Kyoto [1], the “solubility in G1/S (log2)” value is -0.217. Also, the “solubility change mitosis (log2)” value in the series with HeLa Kyoto [2] was -0.445.

As for “MEEKYGGDVLAGPGGGGGLGPVDVPSARLTKYIVLLCFTKFLKAVGLFESYDLLKAVHIVQFIFILKLGTAFFMVLFQKPFSSGKTITKHQWIKIFKHAVAGCIISLLWFFGLTLCGPLRTLLLFEHSDIVVISLLSVLFTSSGGGPAKTRGAAFFIIAVICLLLFDNDDLMAKMAEHPEGHHDSALTHMLYTAIAFLGVADHKGGVLLLVLALCCKVGFHTASRKLSVDVGGAKRLQALSHLVSVLLLCPWVIVLSVTTESKVESWFSLIMPFATVIFFVMILDFYVDSICSVKMEVSKCARYGSFPIFISALLFGNFWTHPITDQLRAMNKAAHQESTEHVLSGGVVVSAIFFILSANILSSPSKRGQKGTLIGYSPEGTPLYNFMGDAFQHSSQSIPRFIKESLKQILEESDSRQIFYFLCLNLLFTFVELFYGVLTNSLGLISDGFHMLFDCSALVMGLFAALMSRWKATRIFSYGYGRIEILSGFINGLFLIVIAFFVFMESVARLIDPPELDTHMLTPVSVGGLIVNLIGICAFSHAHSHAHGASQGSCHSSDHSHSHHMHGHSDHGHGHSHGSAGGGMNANMRGVFLHVLADTLGSIGVIVSTVLIEQFGWFIADPLCSLFIAILIFLSVVPLIKDACQVLLLRLPPEYEKELHIALEKIQKIEGLISYRDPHFWRHSASIVAGTIHIQVTSDVLEQRIVQQVTGILKDAGVNNLTIQVEKEAYFQHMSGLSTGFHDVLAMTKQMESMKYCKDGTYIM [SLC30A5]”, the “solubility in G1/S (log2)” value in the series on HeLa Kyoto [1] was -0.143. Also, the “solubility change mitosis (log2)” value in the series with HeLa Kyoto [2] is -0.241.
